The experiment concerns the target T1, TRIM21-His protein (UniProt P19474 1-475).
T1 construct: TRIM21-His protein, Sino Biological 18010-H07B; also called recombinant TRIM21; source: bought: Sino Biological (18010-H07B)
The experiment can be described thus: pull-down; TRIM21-His incubated with GST-ID1 or GST at a 3:1 molar ratio in lysis buffer; captured with anti-GST antibody at 4 °C overnight, then Protein A/G beads 4 h; immunoblot. Conditions: both partners purified.

B1: GST-ID1 (natural protein, UniProt P41134 1-155, looked up)
chain: MKVASGSTATAAAGPSCALKAGKTASGAGEVVRCLSEQSVAISRCAGGAGARLPALLDEQQVNVLLYDMNGCYSRLKELVPTLPQNRKVSKVEILQHVIDYIRDLQLELNSESEVGTPGGRGLPVRAPLSTLNGEISALTAEAACVPADDRILCR
notes: also called recombinant ID1; source: cloned into pGEX-6p-2 with a GST tag and purified
As to B1, the binding result is reported as “binds”.

The values above are taken from PMC12462935, “TRIM21‐Mediated K11‐Linked Ubiquitination of ID1 Suppresses Tumorigenesis and Promotes Cuproptosis in Esophageal Squamous Cell Carcinoma” (Advanced Science, 2025).
